What was measured:
[1] = target: T1, Biotinylated N51 (HIV-1 gp41 HR1-derived peptide, residues 540 to 590 of HIV-1 HXB2) (HIV-1 HXB2, N-terminal biotin); assay: ELISA, biotinylated peptide on streptavidin, anti-His-HRP detection, sigmoid fit, apparent KD
T1 construct: Immobilised through biotin on streptavidin; also called HIV-1 N51; biotinylated HIV-1 N51

[2] = target: T1, Biotinylated N51 (HIV-1 gp41 …); assay: SPR (BIAcore), biotinylated N51 on streptavidin chip, 1:1 Langmuir fit
[3] = target: T2, bL4_C36 (HIV-1 gp41 HR2-derived biotinylated peptide C36) (HIV-1 HXB2, N-terminal biotin; C-terminal amide); assay: ELISA, biotinylated peptide on streptavidin, anti-His-HRP detection, apparent KD
T2 construct: also called gp41 C36 target peptide; control peptide C36
T2 peptide: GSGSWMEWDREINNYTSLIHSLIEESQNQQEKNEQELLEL

[4] = target: T2, bL4_C36 (HIV-1 gp41 HR2-derived …); assay: ELISA, biotinylated peptide on streptavidin, anti-His-HRP detection, sigmoid fit, apparent KD

Binder | Kd [1] [µM] | Kd [2] [µM] | koff [2] [s⁻¹] | kon [2] [M⁻¹ s⁻¹] | Kd [3] [µM] | Kd [4] [µM]
Alphabody 'scAB013_C2' (designed binder, Single-chain Alphabody that mimics gp41 HR2 (grafted B-helix), made in E. coli; also called wild type scAB013_C2) MSIEEIQKQIAAIQKQIAAIQKQIYRMTGGSSGGSMQMYTIQIQILIIQAQIQQIQNQIELMTLGGSSGGMSIEEIQKQIAAIQKQIAAIQKQIYRMTPLEHHHHHH | 0.018 | 0.00207 | 0.000209 | 101000 | > 10 | 
Alphabody 'scAB_Env03' (designed binder, The tag of the construct tested is not described; also called scAB013_Env03) MGHHHHHHHHHHSSGHIEGRHMSIEEIQKPIATIQEAIAWIQKKIYMMTGGSGGGSGGGSGGGSGMSIEEIQKQIAAIQKQIAAIQKQIYAMTGGSGGGSGGGSGGGSGMSIEEIQKQIVAIMEQIVAIVKQISAMTP |  |  |  |  |  | 0.211
